Results from patent publication US20080242590A1, “New Method 706” (ASTRAZENECA AB, priority 2007, published 2008).

Key:
Test in all cases: cell-based or functional assay
[1] = target: amyloid β peptide 1-40 in guinea pig plasma (guinea pig) (UniProt Q60495)
[2] = target: amyloid β peptide 1-42 in guinea pig plasma (guinea pig) (UniProt Q60495)
[3] = target: amyloid β peptide 1-40 (human) (human)
[4] = target: amyloid β peptide 1-42 (human) (human)
Sequence of amyloid β peptide 1-42 (human) (human) (peptide, as listed by the source): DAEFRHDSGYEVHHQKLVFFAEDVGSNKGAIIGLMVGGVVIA

Sequence of amyloid β peptide 1-40 (human) (human) (peptide, as listed by the source): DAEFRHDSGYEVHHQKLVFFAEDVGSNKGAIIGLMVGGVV
Sequence of Recombinant Human Neprilysin (R&D Systems) (P08473 52-750 limits assumed): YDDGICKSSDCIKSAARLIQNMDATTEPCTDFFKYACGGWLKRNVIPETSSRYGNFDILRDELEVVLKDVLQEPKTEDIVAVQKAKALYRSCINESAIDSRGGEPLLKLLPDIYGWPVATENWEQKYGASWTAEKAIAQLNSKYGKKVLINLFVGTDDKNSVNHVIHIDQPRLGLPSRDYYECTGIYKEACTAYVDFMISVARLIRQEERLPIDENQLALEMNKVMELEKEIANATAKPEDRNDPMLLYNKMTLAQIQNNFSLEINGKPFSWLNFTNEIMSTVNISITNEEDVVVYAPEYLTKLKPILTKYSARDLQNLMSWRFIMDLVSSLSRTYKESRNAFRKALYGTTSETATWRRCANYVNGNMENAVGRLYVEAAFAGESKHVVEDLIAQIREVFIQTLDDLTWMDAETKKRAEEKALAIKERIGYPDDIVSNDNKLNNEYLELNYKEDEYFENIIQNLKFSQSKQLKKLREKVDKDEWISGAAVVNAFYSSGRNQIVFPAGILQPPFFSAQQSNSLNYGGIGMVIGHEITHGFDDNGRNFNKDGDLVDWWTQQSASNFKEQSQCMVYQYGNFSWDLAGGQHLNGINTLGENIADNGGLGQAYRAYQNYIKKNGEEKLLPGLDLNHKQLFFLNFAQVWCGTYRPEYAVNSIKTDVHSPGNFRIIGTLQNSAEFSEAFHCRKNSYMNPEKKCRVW

Substance	degradation of Aβ40 in guinea pig plasma ex vivo compared to vehicle (ELISA), 5 µg/ml, 4 h at 37 °C [1] [%]	reduction of Aβ42 in guinea pig plasma ex vivo compared to vehicle (ELISA), 5 µg/ml, 4 h at 37 °C [2] [%]	% degradation of amyloid β 1-40 in APPswe-tg mouse plasma at highest concentration (100 µg/ml), 1 h room temperature, ELISA [3] [%]	% degradation of amyloid β 1-40 in human plasma at highest concentration (100 µg/ml), 1 h room temperature, ELISA [3] [%]	EC50 of degradation of Aβ 1-40 in APPswe-tg mouse plasma [3] [nM]	EC50 of degradation of Aβ 1-40 in human plasma [3] [nM]	% degradation of Aβ 1-42 in APPswe-tg mouse plasma at highest concentration (100 µg/ml), 1 h room temperature, ELISA [4] [%]	% degradation of Aβ 1-42 in human plasma at highest concentration (100 µg/ml), 1 h room temperature, ELISA [4] [%]	EC50 of degradation of Aβ 1-42 in APPswe-tg mouse plasma [4] [nM]	EC50 of degradation of Aβ 1-42 in human plasma [4] [nM]
Recombinant Human Neprilysin (R&D Systems) (from UniProt P08473 52-750) (enzyme)	49	> 57								
mouse version of the Fc-Nep (mFc-Nep) (Fc fusion)			77	71	340	400	53	19	820	180
